Laboratory results reported in publication PMC4108407, “6-Hydroxy-3-Succinoylpyridine Hydroxylase Catalyzes a Central Step of Nicotine Degradation in Agrobacterium tumefaciens S33” (PLoS ONE, 2014).

How the values were obtained:
Assay in all cases: purified protein
[1] = system: NC(=O)C1=CN([C@@H]2O[C@H](COP(=O)(O)OP(=O)(O)OC[C@H]3O[C@@H](n4cnc5c(N)ncnc54)[C@H](O)[C@@H]3O)[C@@H](O)[C@H]2O)C=CC1; conditions: 50 mM phosphate buffer pH 8.0, 30°C, co-substrate HSP, FAD
[2] = system: NC(=O)C1=CN([C@@H]2O[C@H](COP(=O)(O)OP(=O)(O)OC[C@H]3O[C@@H](n4cnc5c(N)ncnc54)[C@H](OP(=O)(O)O)[C@@H]3O)[C@@H](O)[C@H]2O)C=CC1; conditions: 50 mM phosphate buffer pH 8.0, 30°C, co-substrate HSP, FAD
O=C(O)CCC(=O)c1ccc(O)nc1 = conditions: 50 mM phosphate buffer pH 8.0, 30°C, co-substrate NADH, FAD

## HSP hydroxylase (6-hydroxy-3-succinoylpyridine hydroxylase) (Agrobacterium tumefaciens)
[1]
  Km: 100 ± 10 µM
[2]
  Km: 350 ± 40 µM
O=C(O)CCC(=O)c1ccc(O)nc1
  Km: 150 ± 20 µM
